{"source": "patent US12104181B2", "about": "“Compositions and methods for treating viral infections targeting TRIM7” (THE BOARD OF REGENTS OF THE UNIVERSITY OF TEXAS SYSTEM, priority 2021, dated 2024)", "molecules": {"B1": {"name": "TRIM33: human RING type E3 ligase expressed from lentiviral vector (protein, UniProt Q9UPN9 1-1127, looked up)", "E3 ubiquitin-protein ligase …": "MAENKGGGEAESGGGGSGSAPVTAGAAGPAAQEAEPPLTAVLVEEEEEEGGRAGAEGGAAGPDDGGVAAASSGSAQAASSPAASVGTGVAGGAVSTPAPAPASAPAPGPSAGPPPGPPASLLDTCAVCQQSLQSRREAEPKLLPCLHSFCLRCLPEPERQLSVPIPGGSNGDIQQVGVIRCPVCRQECRQIDLVDNYFVKDTSEAPSSSDEKSEQVCTSCEDNASAVGFCVECGEWLCKTCIEAHQRVKFTKDHLIRKKEDVSESVGASGQRPVFCPVHKQEQLKLFCETCDRLTCRDCQLLEHKEHRYQFLEEAFQNQKGAIENLLAKLLEKKNYVHFAATQVQNRIKEVNETNKRVEQEIKVAIFTLINEINKKGKSLLQQLENVTKERQMKLLQQQNDITGLSRQVKHVMNFTNWAIASGSSTALLYSKRLITFQLRHILKARCDPVPAANGAIRFHCDPTFWAKNVVNLGNLVIESKPAPGYTPNVVVGQVPPGTNHISKTPGQINLAQLRLQHMQQQVYAQKHQQLQQMRMQQPPAPVPTTTTTTQQHPRQAAPQMLQQQPPRLISVQTMQRGNMNCGAFQAHQMRLAQNAARIPGIPRHSGPQYSMMQPHLQRQHSNPGHAGPFPVVSVHNTTINPTSPTTATMANANRGPTSPSVTAIELIPSVTNPENLPSLPDIPPIQLEDAGSSSLDNLLSRYISGSHLPPQPTSTMNPSPGPSALSPGSSGLSNSHTPVRPPSTSSTGSRGSCGSSGRTAEKTSLSFKSDQVKVKQEPGTEDEICSFSGGVKQEKTEDGRRSACMLSSPESSLTPPLSTNLHLESELDALASLENHVKIEPADMNESCKQSGLSSLVNGKSPIRSLMHRSARIGGDGNNKDDDPNEDWCAVCQNGGDLLCCEKCPKVFHLTCHVPTLLSFPSGDWICTFCRDIGKPEVEYDCDNLQHSKKGKTAQGLSPVDQRKCERLLLYLYCHELSIEFQEPVPASIPNYYKIIKKPMDLSTVKKKLQKKHSQHYQIPDDFVADVRLIFKNCERFNEMMKVVQVYADTQEINLKADSEVAQAGKAVALYFEDKLTEIYSDRTFAPLPEFEQEEDDGEVTEDSDEDFIQPRRKRLKSDERPVHIK"}, "B2": {"name": "RNF41: human RING type E3 ligase expressed from lentiviral vector (protein, UniProt Q9H4P4 1-317, looked up)", "E3 ubiquitin-protein ligase …": "MGYDVTRFQGDVDEDLICPICSGVLEEPVQAPHCEHAFCNACITQWFSQQQTCPVDRSVVTVAHLRPVPRIMRNMLSKLQIACDNAVFGCSAVVRLDNLMSHLSDCEHNPKRPVTCEQGCGLEMPKDELPNHNCIKHLRSVVQQQQTRIAELEKTSAEHKHQLAEQKRDIQLLKAYMRAIRSVNPNLQNLEETIEYNEILEWVNSLQPARVTRWGGMISTPDAVLQAVIKRSLVESGCPASIVNELIENAHERSWPQGLATLETRQMNRRYYENYVAKRIPGKQAVVVMACENQHMGDDMVQEPGLVMIFAHGVEEI", "modifications": "lentiviral expression", "notes": "human RING type E3 ligase expressed from lentiviral vector"}, "B3": {"name": "TRIM34: human RING type E3 ligase expressed from lentiviral vector (protein, UniProt Q9BYJ4 1-488, looked up)", "E3 ubiquitin-protein ligase …": "MASKILLNVQEEVTCPICLELLTEPLSLDCGHSLCRACITVSNKEAVTSMGGKSSCPVCGISYSFEHLQANQHLANIVERLKEVKLSPDNGKKRDLCDHHGEKLLLFCKEDRKVICWLCERSQEHRGHHTVLTEEVFKECQEKLQAVLKRLKKEEEEAEKLEADIREEKTSWKYQVQTERQRIQTEFDQLRSILNNEEQRELQRLEEEEKKTLDKFAEAEDELVQQKQLVRELISDVECRSQWSTMELLQDMSGIMKWSEIWRLKKPKMVSKKLKTVFHAPDLSRMLQMFRELTAVRCYWVDVTLNSVNLNLNLVLSEDQRQVISVPIWPFQCYNYGVLGSQYFSSGKHYWEVDVSKKTAWILGVYCRTYSRHMKYVVRRCANRQNLYTKYRPLFGYWVIGLQNKCKYGVFEESLSSDPEVLTLSMAVPPCRVGVFLDYEAGIVSFFNVTSHGSLIYKFSKCCFSQPVYPYFNPWNCPAPMTLCPPSS"}}, "test_system": "coxsackievirus B3 (CVB3-GFP)", "format": "cell-based", "conditions": "HeLa cells, replicate R1; for Percent Infected R1: GFP-positive cells within RFP-positive gate"}
{"molecule": "B1", "values": [{"measurement": "Percent Infected R1", "value": 55.3, "unit": "%"}, {"measurement": "Z score R1", "value": "−0.424"}]}
{"molecule": "B2", "values": [{"measurement": "Percent Infected R1", "value": 93.5, "unit": "%"}, {"measurement": "Z score R1", "value": 0.06}]}
{"molecule": "B3", "values": [{"measurement": "Percent Infected R1", "value": 62.2, "unit": "%"}, {"measurement": "Z score R1", "value": "−0.336"}]}
